For assay [1], the target named is Clade C DU172.17 gp120 protein (HIV-1 Clade C, DU172.17). In words: BLI (Octet), IgG on anti-hIgG Fc sensor, gp120 analyte, 1:1 fit.
For assay [2], the target named is Clade B BaL gp120 protein (HIV-1 Clade B, BaL). The assay is described as above.
For assay [3], the target named is HIV-1 CAP45.2.00.G3 envelope (Env) on Env.IMC.LucR virus (HIV-1 clade C). In words: cell-based or functional assay.
The target of assay [4] is HIV-1 DU422.1 envelope (Env) on Env.IMC.LucR virus (HIV-1 clade C). In words: cell-based or functional assay.
Assay [5] concerns the target HIV-1 X1632_S2_B10 envelope (Env) on Env.IMC.LucR virus (HIV-1 clade G). In words: cell-based or functional assay.
For assay [6], the target named is HIV-1 AC10.0.29 envelope (Env) on Env.IMC.LucR virus (HIV-1 clade B). In words: cell-based or functional assay.
Assay [7] has as its target HIV-1 REJO4541.67 envelope (Env) on Env.IMC.LucR virus (HIV-1 clade B). In words: cell-based or functional assay.
In assay [8] the target is HIV-1 CNE20 envelope (Env) on Env.IMC.LucR virus (HIV-1 clade BC). In words: cell-based or functional assay.
The target in assay [9] is HIV-1 DU172.17 envelope (Env) on Env.IMC.LucR virus (HIV-1 clade C). In words: cell-based or functional assay.

The term Kd denotes the concentration at which binding is half-saturated. For orientation: koff means the rate constant with which the complex falls apart. Low readings indicate a long-lived complex, high ones a short-lived complex. As usually defined, the kon is a measure of how fast the partners come together. A high value points to fast association. Regarding 3BNC117 (antibody), the Kd in [1] stood at 95.8 nM; in assay [2], 3.29 nM. Besides, the fold (KD vs average of 4 runs of L1A2) in assay [1] was 3.77 fold; in [2] it was 6.07 fold. The koff in [1] was determined as 0.00457 s⁻¹; in assay [2] it was 0.000291 s⁻¹. Moreover, the on-rate constant (kon) amounted to 47700 M⁻¹ s⁻¹ in assay [1] and 88500 M⁻¹ s⁻¹ in assay [2]. The IC50 of virus neutralization (TZM-BL, luciferase) in [3] is 2.7 µg/mL; in assay [4], over 50 µg/mL; in [5], 31.2 µg/mL; in assay [6] it was 11 µg/mL; in assay [7], 0.07 µg/mL; in assay [8], over 50 µg/mL. Also, the IC50 of virus neutralization (TZM-BL, luciferase) in [9] was 1.25 µg/mL.

(Values after patent US20210040184A1.)
